# Test results from CN111320686A.
# Values joined by “and” are separate entries in the source; they are usually repeats but may differ in a detail not shown here. Equal entries are not always repeated.
# Legend:
# [1] = target: H7N9病毒的HA蛋白(购自ACROBiosystems) (H7N9 influenza virus)
# [2] = target: H7N9病毒的HA蛋白(购自ACROBiosystems) (H7N9 influenza virus); remark: listed apart in the source
# [3] = target: H7N9病毒 A/Anhui/1/2013 的血凝素HA (on live virus) (H7N9 influenza virus A/Anhui/1/2013); assay: cell-based or functional assay
binder,measurement,setting,value
"抗H7N9全人源单克隆抗体2G3 (antibody, V domains shown) VH: QVQLVESGAEVKKPGASVKVSCKASGYIFTSYEINWVRQATGQGLEWMGWMNPESGETGFAQKFQGRVTMTRNTSITTAYMELSSLTSEDTAVYYCATGNAECSGGSCYNWFEPWGQGTLVTVSS VL: SSELTQDPAVSVALGQTVRITCQGDKLKSYYASWYQQKPGQAPVLVIYGRNNRPSGIPDRFSGSSSGNTASLTITGAQAEDEADYYCNSKETSGYHLVFGGGTKLTVLV",Kd,[1],2.3 nM
same,450nm (OD),[2],1.6 OD 450nm and 2 OD 450nm and 1.78 OD 450nm
same,"微量中和-ELISA (MDCK细胞, 100TCID50 病毒) IC50",[3],0.0711 µg/mL
